The values that follow are results of earlier work, collected in article doi:10.1101/2024.03.27.586990.

In this series the target is Asp27 (UniProt position 27, WNLPADLAWFK). As to conditions: unbound state (no inhibitor), as described by this article.

A word on the pKa: it is the negative logarithm of the acid dissociation constant. In the case of “Dihydrofolate reductase (DHFR) (Escherichia coli)”, the pKa was 6.5.
